According to patent publication US20150166647A1 (VLST, published 2015):

Columns and labels:
mouse MIP-1α/CCL3 = biological target: T1, mouse MIP-1α/CCL3 (mouse, UniProt P10855 24-92); test: Binding (MSD)
T1 construct: also called muMIP-1α
T1 sequence: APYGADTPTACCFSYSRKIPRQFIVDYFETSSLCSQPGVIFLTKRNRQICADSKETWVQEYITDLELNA

mouse MIP-1β/CCL4 = biological target: T2, mouse MIP-1β/CCL4 (mouse, UniProt P14097 24-92); test: Binding (MSD)
T2 construct: also called muMIP-1β
T2 sequence: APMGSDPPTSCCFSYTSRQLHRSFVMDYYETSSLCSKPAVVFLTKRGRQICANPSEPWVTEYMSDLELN

mouse RANTES/CCL5 = biological target: T3, mouse RANTES/CCL5 (mouse, UniProt P30882 24-91); test: MSD electrochemiluminescence, chemokine coated at 1 µg/mL
T3 construct: also called muRANTES
T3 sequence (P30882 24-91 limits assumed): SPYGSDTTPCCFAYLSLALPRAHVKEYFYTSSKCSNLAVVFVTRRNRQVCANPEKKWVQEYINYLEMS

human MIP-1α/CCL3 = biological target: T4, human MIP-1α/CCL3 (human, UniProt P10147 24-92); test: ELISA, hybridoma fusion-well supernatant on coated MIP-1α; background approx. 0.150
T4 construct: also called Biotin-MIP-1α
T4 sequence: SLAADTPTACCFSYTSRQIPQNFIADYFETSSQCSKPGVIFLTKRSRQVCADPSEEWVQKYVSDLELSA

I-309 = biological target: T5, I-309; test: MSD electrochemiluminescence assay; chemokine coated at 1 µg/mL, 7D1G at 3 µg/mL; background = BSA
T5 construct: also called I-309/CCL1; CCL1
T5 chemokine: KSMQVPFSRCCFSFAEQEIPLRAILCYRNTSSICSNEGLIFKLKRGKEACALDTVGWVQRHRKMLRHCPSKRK

IL-8 = biological target: T6, IL-8; test: as above
T6 construct: also called IL-8/CXCL8; CXCL8
T6 sequence (chemokine, as listed by the source): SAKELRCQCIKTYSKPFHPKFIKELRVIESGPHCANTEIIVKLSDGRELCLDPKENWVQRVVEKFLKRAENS

SDF = biological target: T7, SDF; test: as above
T7 construct: also called SDF-1/CXCL12; CXCL12
T7 sequence (chemokine, as listed by the source): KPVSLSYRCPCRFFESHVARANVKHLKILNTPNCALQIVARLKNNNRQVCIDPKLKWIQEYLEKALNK

Fractalkine = biological target: T8, Fractalkine; test: as above
T8 construct: also called Fractalkine/CX3CL1; CX3CL1
T8 chemokine: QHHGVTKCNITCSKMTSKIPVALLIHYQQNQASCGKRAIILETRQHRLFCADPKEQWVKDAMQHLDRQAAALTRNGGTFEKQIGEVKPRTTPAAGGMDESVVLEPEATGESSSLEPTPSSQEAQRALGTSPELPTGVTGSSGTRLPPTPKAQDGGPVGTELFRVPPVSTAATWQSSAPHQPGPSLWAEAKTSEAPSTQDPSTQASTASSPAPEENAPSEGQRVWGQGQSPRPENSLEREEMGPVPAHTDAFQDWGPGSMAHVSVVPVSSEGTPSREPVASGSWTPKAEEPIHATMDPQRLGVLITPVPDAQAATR

HCC-4 = biological target: T9, HCC-4; test: as above
T9 construct: also called HCC-4/CCL16; CCL16
T9 chemokine: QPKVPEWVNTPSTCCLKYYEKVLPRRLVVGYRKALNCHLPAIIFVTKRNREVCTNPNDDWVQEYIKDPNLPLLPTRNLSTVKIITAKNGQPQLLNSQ

MCP-2 = biological target: T10, MCP-2; test: as above
T10 construct: also called MCP-2/CCL8; CCL8
T10 chemokine: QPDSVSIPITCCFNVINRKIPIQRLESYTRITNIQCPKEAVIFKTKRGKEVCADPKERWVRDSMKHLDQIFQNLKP

MCP-3 = biological target: T11, MCP-3; test: as above
T11 construct: also called MCP-3/CCL7; CCL7
T11 sequence (chemokine, as listed by the source): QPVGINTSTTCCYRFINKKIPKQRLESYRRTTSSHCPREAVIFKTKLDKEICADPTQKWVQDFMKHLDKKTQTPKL

MCP-4 = biological target: T12, MCP-4; test: as above
T12 construct: also called MCP-4/CCL13; CCL13
T12 sequence (chemokine, as listed by the source): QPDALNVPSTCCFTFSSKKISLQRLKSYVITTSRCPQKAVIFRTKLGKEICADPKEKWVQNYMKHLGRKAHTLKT

Eotaxin = biological target: T13, Eotaxin; test: as above
T13 construct: also called Eotaxin/CCL11; CCL11
T13 sequence (chemokine, as listed by the source): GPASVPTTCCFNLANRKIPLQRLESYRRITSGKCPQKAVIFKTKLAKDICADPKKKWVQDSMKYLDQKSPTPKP

MDC = biological target: T14, MDC; test: as above
T14 construct: also called MDC/CCL22; CCL22
T14 chemokine: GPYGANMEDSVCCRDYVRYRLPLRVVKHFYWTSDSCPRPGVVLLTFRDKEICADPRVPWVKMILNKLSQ

human HCC-1/CCL14/CCL14a = biological target: T15, human HCC-1/CCL14/CCL14a (human, UniProt Q16627 28-93); test: as above
T15 sequence: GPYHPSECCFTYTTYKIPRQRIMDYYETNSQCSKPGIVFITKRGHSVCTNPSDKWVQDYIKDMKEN

human MCP-1/CCL2 [1] = biological target: T16, human MCP-1/CCL2 (human, UniProt P13500 24-99); test: as above
T16 construct: also called Biotin-MCP1
T16 sequence (P13500 24-99 limits assumed): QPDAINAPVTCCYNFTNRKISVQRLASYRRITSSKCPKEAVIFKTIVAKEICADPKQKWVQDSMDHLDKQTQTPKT

human MIP-1β/CCL4 = biological target: T17, human MIP-1β/CCL4 (human, UniProt Q8NHW4 24-92); test: ELISA, hybridoma fusion-well supernatant on biotinylated chemokine on streptavidin plate; background approx. 0.150
T17 construct: also called Biotin-MIP-1β
T17 chain: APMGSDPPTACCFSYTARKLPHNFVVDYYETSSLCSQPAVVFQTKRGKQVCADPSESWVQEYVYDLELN

human RANTES/CCL5 = biological target: T18, human RANTES/CCL5 (human, UniProt P13501 24-91); test: as above
T18 construct: also called Biotin-RANTES
T18 sequence: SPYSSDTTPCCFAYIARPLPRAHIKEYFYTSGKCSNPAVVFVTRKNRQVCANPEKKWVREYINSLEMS

human MCP-1/CCL2 [2] = biological target: T16, human MCP-1/CCL2; test: as above

binding result (mouse MIP-1α/CCL3): binds | binding result (mouse MIP-1β/CCL4): binds | binding result (mouse RANTES/CCL5): no binding (tested: 3 µg/mL) | ELISA signal (human MIP-1α/CCL3): 1.7 | binding result (I-309): no binding (tested: 3 µg/mL) | binding result (IL-8): no binding (tested: 3 µg/mL) | binding result (SDF): no binding (tested: 3 µg/mL) | binding result (Fractalkine): no binding (tested: 3 µg/mL) | binding result (HCC-4): no binding (tested: 3 µg/mL) | binding result (MCP-2): no binding (tested: 3 µg/mL) | binding result (MCP-3): no binding (tested: 3 µg/mL) | binding result (MCP-4): no binding (tested: 3 µg/mL) | binding result (Eotaxin): no binding (tested: 3 µg/mL) | binding result (MDC): no binding (tested: 3 µg/mL) | binding result (human HCC-1/CCL14/CCL14a): binds | binding result (human MCP-1/CCL2 [1]): no binding (tested: 3 µg/mL) | ELISA signal (human MIP-1β/CCL4): 2.57 | ELISA signal (human RANTES/CCL5): 0.145 | ELISA signal (human MCP-1/CCL2 [2]): 0.22
B1: monoclonal antibody 7D1G (antibody, V domains shown)
VH: QVQLQQPGAELVKPGASVKMSCKASGYTFTSYNIHWVKQTPGQGLEWIGAVSPRNGDTSYNQRFKGKATLTADISSSTAYMQLSSLTSEDSAVYYCARGYGYDYWGQGTTLTVSS
VL: DVVLTQSPATLSVTPGDRVSLSCRASQSVSKYLHWYQQKSHESPRLLIKYVSQSISGIPSRFSGSGSGTDFTLSINSVETEDLGMYFCQQSNSWPHTFGAGTKLELK
notes: also called MAb 7D1G
